# Measured values taken from paper PMC10297652, “Large-Scale Production of Anti-RNase A VHH Expressed in pyrG Auxotrophic Aspergillus oryzae” (Current Issues in Molecular Biology, 2023).
# Biological target: T1, RNase A (Bos taurus (assumed; commercial RNase …, UniProt P61823)
# T1 construct: RNase A (ribonuclease A), about 13.7 kDa, commercial; also called ribonuclease A; source: bought: Biofroxx (1263MG050)
# Assay: SPR; BIAcore T200, CM5 chip; Asp. VHH captured on flow cell 4; RNase A injected at 0, 2, 10, 50 nM, multi-cycle kinetics; HBS-EP+ pH 7.4; 25 °C; 1:1 binding model
# Details: both partners purified
# T1 sequence (P61823 27-150): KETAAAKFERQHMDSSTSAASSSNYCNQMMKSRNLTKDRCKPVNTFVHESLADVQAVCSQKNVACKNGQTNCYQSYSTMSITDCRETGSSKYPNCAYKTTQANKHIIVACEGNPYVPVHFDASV
binder,measurement,value
"anti-RNase A VHH expressed in pyrG auxotrophic Aspergillus oryzae (VHH, DNA codon-optimized; about 13 kDa; also called Asp; VHH; anti-ribonuclease A VHH; source: pyrG(-) A. oryzae RIB40, secreted into the culture medium, purified (Ni-NTA IMAC, PD-10 desalting, Superdex 200 SEC); not shown: 8xHis, C-terminal, kept) VHH: QVQLVESGGGLVQAGGSLRLSCAASGYAYTYIYMGWFRQAPGKEREGVAAMDSGGGGTLYADSVKGRFTISRDKGKNTVYLQMDSLKPEDTATYYCAAGGYELRDRTYGQWGQGTQVTVSS",Kd,1.91 nM
